Experimental data: patent US20210032299A1 (Eli Lilly, published 2021)
Starred links: 1 amine or outer side, 2 acyl side, 3 side chain; linkers in the order of their positions; H or OH if unused. Non-standard residues stand in square brackets, D forms with d. Groups on a side chain read outwards from the residue. No end group written: not given here. *: point of attachment. C20 diacid = O=C(O)CCCCCCCCCCCCCCCCCCC(=O)*; γGlu = O=C(O)[C@H](CCC(=O)[*:2])N[*:1]; αMeF = C[C@](N)(Cc1ccccc1)C(=O)O; 4Pal = N[C@@H](Cc1ccncc1)C(=O)O; αMeL = CC(C)C[C@](C)(N)C(=O)O; AEEA = NCCOCCOCC(=O)O; Aib = CC(C)(N)C(=O)O

T1: human glucose-dependent insulinotropic polypeptide (GIP) receptor (human, UniProt P48546 22-466)
T1 construct: whole, on cells; Assayed as crude membranes of stably transfected CHO cells; also called hGIPR; human GIP receptor
T1 sequence (looked up): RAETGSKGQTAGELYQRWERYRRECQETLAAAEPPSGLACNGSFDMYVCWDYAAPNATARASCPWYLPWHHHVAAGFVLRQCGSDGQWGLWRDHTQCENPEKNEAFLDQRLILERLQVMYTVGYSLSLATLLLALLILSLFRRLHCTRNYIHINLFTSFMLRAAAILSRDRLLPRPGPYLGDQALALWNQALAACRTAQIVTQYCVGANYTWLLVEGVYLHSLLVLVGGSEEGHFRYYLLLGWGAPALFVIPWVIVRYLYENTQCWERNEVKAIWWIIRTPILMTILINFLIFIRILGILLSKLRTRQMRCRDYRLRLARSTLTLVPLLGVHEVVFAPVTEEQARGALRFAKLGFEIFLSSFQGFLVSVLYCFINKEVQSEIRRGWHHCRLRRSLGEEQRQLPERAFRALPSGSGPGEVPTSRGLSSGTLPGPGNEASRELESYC


Columns and labels:
human GLP-1 receptor = molecular target: T2, human GLP-1 receptor (human, UniProt P43220 24-463); assay: SPA, displacement of [125I]-GLP-1 from hGLP-1R membranes, 0.1% bacitracin
T2 construct: whole, on cells; Assayed as crude membranes of stably transfected HEK293 cells; also called hGLP1R; hGLP-1R
Outline: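 Binding buffer: 25 mM HEPES pH 7.4, 2.5 mM CaCl₂, 1 mM MgCl₂, 0.1% bacitracin, 0.003% Tween-20, protease inhibitors without EDTA. Four-parameter nonlinear regression; Kᵢ given as geometric mean ± SEM, n = independent replicates run on different days.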

[1] = molecular target: T1, human glucose-dependent insulinotropic …; assay: SPA, displacement of [125I]-GIP from hGIPR membranes, 0.1% bacitracin
human glucagon receptor = molecular target: T3, human glucagon receptor (human, UniProt P47871 26-477); assay: SPA, displacement of [125I]-Gcg from hGcgR membranes, 0.1% bacitracin
T3 construct: whole, on cells; Assayed as crude membranes of stably transfected HEK293 cells; also called hGcgR; GcgR
Outline: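 Binding buffer: 25 mM HEPES pH 7.4, 2.5 mM CaCl₂, 1 mM MgCl₂, 0.003% Tween-20, protease inhibitors without EDTA. Counted by scintillation after 12 h incubation/settling at room temperature. Four-parameter nonlinear fit; Kᵢ given as geometric mean ± SEM of independent replicates run on different days.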

T3 sequence (P47871 26-477): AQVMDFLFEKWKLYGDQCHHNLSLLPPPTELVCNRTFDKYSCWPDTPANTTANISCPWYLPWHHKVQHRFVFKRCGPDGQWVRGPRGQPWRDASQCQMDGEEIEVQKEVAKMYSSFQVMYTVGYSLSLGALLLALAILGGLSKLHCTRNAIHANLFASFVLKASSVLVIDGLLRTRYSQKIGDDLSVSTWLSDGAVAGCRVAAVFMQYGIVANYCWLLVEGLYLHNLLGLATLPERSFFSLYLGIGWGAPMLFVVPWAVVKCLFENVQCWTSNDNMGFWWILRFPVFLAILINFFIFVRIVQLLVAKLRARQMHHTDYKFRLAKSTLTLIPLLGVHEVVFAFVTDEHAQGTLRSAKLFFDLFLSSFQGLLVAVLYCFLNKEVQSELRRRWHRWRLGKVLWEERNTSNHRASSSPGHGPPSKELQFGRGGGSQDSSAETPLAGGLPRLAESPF

| Binder | Ki (human GLP-1 receptor) [nM] | Ki [1] [nM] | Ki (human glucagon receptor) [nM] |
| --- | --- | --- | --- |
| Y[Aib]EGTFISDYSI[αMeL]LDKK([AEEA-AEEA-γGlu-C20 diacid])HQ[Aib]DFVE[4Pal]LLAGGPSSGAPPPS-NH2 (N-terminus assumed; SMILES CC[C@H](C)[C@H](NC(=O)[C@H](Cc1ccccc1)NC(=O)[C@@H](NC(=O)CNC(=O)[C@H](CCC(=O)O)NC(=O)C(C)(C)NC(=O)[C@@H](N)Cc1ccc(O)cc1)[C@@H](C)O)C(=O)N[C@@H](CO)C(=O)N[C@@H](CC(=O)O)C(=O)N[C@@H](Cc1ccc(O)cc1)C(=O)N[C@@H](CO)C(=O)N[C@H](C(=O)N[C@@](C)(CC(C)C)C(=O)N[C@@H](CC(C)C)C(=O)N[C@@H](CC(=O)O)C(=O)N[C@@H](CCCCN)C(=O)N[C@@H](CCCCNC(=O)COCCOCCNC(=O)COCCOCCNC(=O)CC[C@H](NC(=O)CCCCCCCCCCCCCCCCCCC(=O)O)C(=O)O)C(=O)N[C@@H](Cc1c[nH]cn1)C(=O)N[C@@H](CCC(N)=O)C(=O)NC(C)(C)C(=O)N[C@@H](CC(=O)O)C(=O)N[C@@H](Cc1ccccc1)C(=O)N[C@H](C(=O)N[C@@H](CCC(=O)O)C(=O)N[C@@H](Cc1ccncc1)C(=O)N[C@@H](CC(C)C)C(=O)N[C@@H](CC(C)C)C(=O)N[C@@H](C)C(=O)NCC(=O)NCC(=O)N1CCC[C@H]1C(=O)N[C@@H](CO)C(=O)N[C@@H](CO)C(=O)NCC(=O)N[C@@H](C)C(=O)N1CCC[C@H]1C(=O)N1CCC[C@H]1C(=O)N1CCC[C@H]1C(=O)N[C@@H](CO)C(N)=O)C(C)C)[C@@H](C)CC) [Example 48] | 211 | 0.0498 | 267 |
| Y[Aib]EGT[αMeF]ISDYSI[αMeL]LDKK([AEEA-AEEA-γGlu-C20 diacid])HQ[Aib]DFVE[4Pal]LLAGGPSSGAPPPS-NH2 (N-terminus assumed; SMILES CC[C@H](C)[C@H](NC(=O)[C@H](CO)NC(=O)[C@H](Cc1ccc(O)cc1)NC(=O)[C@H](CC(=O)O)NC(=O)[C@H](CO)NC(=O)[C@@H](NC(=O)[C@](C)(Cc1ccccc1)NC(=O)[C@@H](NC(=O)CNC(=O)[C@H](CCC(=O)O)NC(=O)C(C)(C)NC(=O)[C@@H](N)Cc1ccc(O)cc1)[C@@H](C)O)[C@@H](C)CC)C(=O)N[C@@](C)(CC(C)C)C(=O)N[C@@H](CC(C)C)C(=O)N[C@@H](CC(=O)O)C(=O)N[C@@H](CCCCN)C(=O)N[C@@H](CCCCNC(=O)COCCOCCNC(=O)COCCOCCNC(=O)CC[C@H](NC(=O)CCCCCCCCCCCCCCCCCCC(=O)O)C(=O)O)C(=O)N[C@@H](Cc1c[nH]cn1)C(=O)N[C@@H](CCC(N)=O)C(=O)NC(C)(C)C(=O)N[C@@H](CC(=O)O)C(=O)N[C@@H](Cc1ccccc1)C(=O)N[C@H](C(=O)N[C@@H](CCC(=O)O)C(=O)N[C@@H](Cc1ccncc1)C(=O)N[C@@H](CC(C)C)C(=O)N[C@@H](CC(C)C)C(=O)N[C@@H](C)C(=O)NCC(=O)NCC(=O)N1CCC[C@H]1C(=O)N[C@@H](CO)C(=O)N[C@@H](CO)C(=O)NCC(=O)N[C@@H](C)C(=O)N1CCC[C@H]1C(=O)N1CCC[C@H]1C(=O)N1CCC[C@H]1C(=O)N[C@@H](CO)C(N)=O)C(C)C) [Example 50] | 34.9 | 0.0501 | 23.4 |
| Y[Aib]EGT[αMeF]ISDYSI[αMeL]LDKK([AEEA-AEEA-γGlu-C20 diacid])HQ[Aib]EFVE[4Pal]LLAQGPSSGAPPPS-NH2 (N-terminus assumed; SMILES CC[C@H](C)[C@H](NC(=O)[C@H](CO)NC(=O)[C@H](Cc1ccc(O)cc1)NC(=O)[C@H](CC(=O)O)NC(=O)[C@H](CO)NC(=O)[C@@H](NC(=O)[C@](C)(Cc1ccccc1)NC(=O)[C@@H](NC(=O)CNC(=O)[C@H](CCC(=O)O)NC(=O)C(C)(C)NC(=O)[C@@H](N)Cc1ccc(O)cc1)[C@@H](C)O)[C@@H](C)CC)C(=O)N[C@@](C)(CC(C)C)C(=O)N[C@@H](CC(C)C)C(=O)N[C@@H](CC(=O)O)C(=O)N[C@@H](CCCCN)C(=O)N[C@@H](CCCCNC(=O)COCCOCCNC(=O)COCCOCCNC(=O)CC[C@H](NC(=O)CCCCCCCCCCCCCCCCCCC(=O)O)C(=O)O)C(=O)N[C@@H](Cc1c[nH]cn1)C(=O)N[C@@H](CCC(N)=O)C(=O)NC(C)(C)C(=O)N[C@@H](CCC(=O)O)C(=O)N[C@@H](Cc1ccccc1)C(=O)N[C@H](C(=O)N[C@@H](CCC(=O)O)C(=O)N[C@@H](Cc1ccncc1)C(=O)N[C@@H](CC(C)C)C(=O)N[C@@H](CC(C)C)C(=O)N[C@@H](C)C(=O)N[C@@H](CCC(N)=O)C(=O)NCC(=O)N1CCC[C@H]1C(=O)N[C@@H](CO)C(=O)N[C@@H](CO)C(=O)NCC(=O)N[C@@H](C)C(=O)N1CCC[C@H]1C(=O)N1CCC[C@H]1C(=O)N1CCC[C@H]1C(=O)N[C@@H](CO)C(N)=O)C(C)C) [Example 60] | 51.4 | 0.039 | 26.2 |
| Y[Aib]EGT[αMeF]ISDYSI[αMeL]LDKK([AEEA-AEEA-γGlu-C20 diacid])HQ[Aib]EFVE[4Pal]LLATGPSSGAPPPS-NH2 (N-terminus assumed; SMILES CC[C@H](C)[C@H](NC(=O)[C@H](CO)NC(=O)[C@H](Cc1ccc(O)cc1)NC(=O)[C@H](CC(=O)O)NC(=O)[C@H](CO)NC(=O)[C@@H](NC(=O)[C@](C)(Cc1ccccc1)NC(=O)[C@@H](NC(=O)CNC(=O)[C@H](CCC(=O)O)NC(=O)C(C)(C)NC(=O)[C@@H](N)Cc1ccc(O)cc1)[C@@H](C)O)[C@@H](C)CC)C(=O)N[C@@](C)(CC(C)C)C(=O)N[C@@H](CC(C)C)C(=O)N[C@@H](CC(=O)O)C(=O)N[C@@H](CCCCN)C(=O)N[C@@H](CCCCNC(=O)COCCOCCNC(=O)COCCOCCNC(=O)CC[C@H](NC(=O)CCCCCCCCCCCCCCCCCCC(=O)O)C(=O)O)C(=O)N[C@@H](Cc1c[nH]cn1)C(=O)N[C@@H](CCC(N)=O)C(=O)NC(C)(C)C(=O)N[C@@H](CCC(=O)O)C(=O)N[C@@H](Cc1ccccc1)C(=O)N[C@H](C(=O)N[C@@H](CCC(=O)O)C(=O)N[C@@H](Cc1ccncc1)C(=O)N[C@@H](CC(C)C)C(=O)N[C@@H](CC(C)C)C(=O)N[C@@H](C)C(=O)N[C@H](C(=O)NCC(=O)N1CCC[C@H]1C(=O)N[C@@H](CO)C(=O)N[C@@H](CO)C(=O)NCC(=O)N[C@@H](C)C(=O)N1CCC[C@H]1C(=O)N1CCC[C@H]1C(=O)N1CCC[C@H]1C(=O)N[C@@H](CO)C(N)=O)[C@@H](C)O)C(C)C) [Example 61] | 135 | 0.0665 | 80.4 |
| Y[Aib]EGT[αMeF]ISDYSI[αMeL]LDKK([AEEA-AEEA-γGlu-C20 diacid])HQ[Aib]EFVE[4Pal]LLAAGPSSGAPPPS-NH2 (N-terminus assumed; SMILES CC[C@H](C)[C@H](NC(=O)[C@H](CO)NC(=O)[C@H](Cc1ccc(O)cc1)NC(=O)[C@H](CC(=O)O)NC(=O)[C@H](CO)NC(=O)[C@@H](NC(=O)[C@](C)(Cc1ccccc1)NC(=O)[C@@H](NC(=O)CNC(=O)[C@H](CCC(=O)O)NC(=O)C(C)(C)NC(=O)[C@@H](N)Cc1ccc(O)cc1)[C@@H](C)O)[C@@H](C)CC)C(=O)N[C@@](C)(CC(C)C)C(=O)N[C@@H](CC(C)C)C(=O)N[C@@H](CC(=O)O)C(=O)N[C@@H](CCCCN)C(=O)N[C@@H](CCCCNC(=O)COCCOCCNC(=O)COCCOCCNC(=O)CC[C@H](NC(=O)CCCCCCCCCCCCCCCCCCC(=O)O)C(=O)O)C(=O)N[C@@H](Cc1c[nH]cn1)C(=O)N[C@@H](CCC(N)=O)C(=O)NC(C)(C)C(=O)N[C@@H](CCC(=O)O)C(=O)N[C@@H](Cc1ccccc1)C(=O)N[C@H](C(=O)N[C@@H](CCC(=O)O)C(=O)N[C@@H](Cc1ccncc1)C(=O)N[C@@H](CC(C)C)C(=O)N[C@@H](CC(C)C)C(=O)N[C@@H](C)C(=O)N[C@@H](C)C(=O)NCC(=O)N1CCC[C@H]1C(=O)N[C@@H](CO)C(=O)N[C@@H](CO)C(=O)NCC(=O)N[C@@H](C)C(=O)N1CCC[C@H]1C(=O)N1CCC[C@H]1C(=O)N1CCC[C@H]1C(=O)N[C@@H](CO)C(N)=O)C(C)C) [Example 62] | 47.6 | 0.0414 | 31.3 |
| YXEGTXISDYSIXLDKKHQXDFVEXLLEGGPSSGAPPPS (Aib2; Iva6; αMeL13; K17((2-[2-(2-Amino-ethoxy)-ethoxy]-acetyl)2-(γ-Glu)-CO-(CH2)18-CO2H); Aib20; 4-Pal25; C-terminal amide) [Example 74] | 395 | 0.0287 | 511 |
| YXEGTXISDYSIXLDKKHQXDFVEXLLEAGPSSGAPPPS (Aib2; Iva6; αMeL13; K17((2-[2-(2-Amino-ethoxy)-ethoxy]-acetyl)2-(γ-Glu)-CO-(CH2)18-CO2H); Aib20; 4-Pal25; C-terminal amide) [Example 88] | 261 | 0.083 | 788 |
